T1: Nup120 (S. cerevisiae, UniProt P35729 1-1037)
T1 sequence: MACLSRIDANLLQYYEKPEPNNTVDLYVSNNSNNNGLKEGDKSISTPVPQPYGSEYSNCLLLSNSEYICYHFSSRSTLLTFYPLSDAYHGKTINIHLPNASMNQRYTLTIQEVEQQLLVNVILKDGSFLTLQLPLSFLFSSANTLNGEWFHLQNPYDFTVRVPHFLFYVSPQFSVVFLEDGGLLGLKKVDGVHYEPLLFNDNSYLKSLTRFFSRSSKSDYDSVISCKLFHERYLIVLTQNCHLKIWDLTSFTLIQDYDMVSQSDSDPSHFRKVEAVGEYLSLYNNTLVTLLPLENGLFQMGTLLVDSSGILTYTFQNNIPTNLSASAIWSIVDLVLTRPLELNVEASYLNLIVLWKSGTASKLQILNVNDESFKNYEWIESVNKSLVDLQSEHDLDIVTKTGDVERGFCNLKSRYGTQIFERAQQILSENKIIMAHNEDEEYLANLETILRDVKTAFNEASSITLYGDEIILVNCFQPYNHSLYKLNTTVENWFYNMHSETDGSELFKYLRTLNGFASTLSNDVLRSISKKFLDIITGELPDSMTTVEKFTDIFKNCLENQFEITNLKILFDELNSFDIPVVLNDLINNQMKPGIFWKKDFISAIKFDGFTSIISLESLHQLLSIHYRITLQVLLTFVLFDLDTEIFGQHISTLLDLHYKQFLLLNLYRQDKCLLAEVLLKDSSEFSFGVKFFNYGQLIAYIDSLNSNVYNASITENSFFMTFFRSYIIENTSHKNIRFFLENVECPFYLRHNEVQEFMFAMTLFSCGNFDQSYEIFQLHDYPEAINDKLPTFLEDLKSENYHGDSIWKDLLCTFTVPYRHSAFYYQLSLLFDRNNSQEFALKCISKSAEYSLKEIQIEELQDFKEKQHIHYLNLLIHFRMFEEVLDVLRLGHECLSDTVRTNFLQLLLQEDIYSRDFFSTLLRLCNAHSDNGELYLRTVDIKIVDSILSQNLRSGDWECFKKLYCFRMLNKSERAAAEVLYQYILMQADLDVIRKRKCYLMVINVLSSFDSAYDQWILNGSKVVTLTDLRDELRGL

B1: synthetic antibody sAB-57 (Fab, V domains shown)
VH: EVQLVESGGGLVQPGGSLRLSCAASGFNVSYSSIHWVRQAPGKGLEWVASIYPYYGSTSYADSVKGRFTISADTSKNTAYLQMNSLRAEDTAVYYCARTGMYFGFFHHSWSNAALDYWGQGTLVTVSS
VL: DIQMTQSPSSLSASVGDRVTITCRASQSVSSAVAWYQQKPGKAPKLLIYSASSLYSGVPSRFSGSRSGTDFTLTISSLQPEDFATYYCQQISQYPITFGQGTKVEIK
B2: Nup85 C-terminal domain (domain or fragment, S. cerevisiae, UniProt P46673 545-744, looked up)
chain: QMLSAHNIIESIANFSRAGKYELVKSYSWLLFEASCMEGQKLDDPVLNAIVSKNSPAEDDVIIPQDILDCVVTNSMRQTLAPYAVLSQFYELRDREDWGQALRLLLLLIEFPYLPKHYLVLLVAKFLYPIFLLDDKKLMDEDSVATVIEVIETKWDDADEKSSNLYETIIEADKSLPSSMATLLKNLRKKLNFKLCQAFM
B3: Seh1 (natural protein, S. cerevisiae)
chain: MQPFDSGHDDLVHDVVYDFYGRHVATCSSDQHIKVFKLDKDTSNWELSDSWRAHDSSIVAIDWASPEYGRIIASASYDKTVKLWEEDPDQEECSGRRWNKLCTLNDSKGSLYSVKFAPAHLGLKLACLGNDGILRLYDALEPSDLRSWTLTSEMKVLSIPPANHLQSDFCLSWCPSRFSPEKLAVSALEQAIIYQRGKDGKLHVAAKLPGHKSLIRSISWAPSIGRWYQLIATGCKDGRIRIFKITEKLSPLASEESLTNSNMFDNSADVDMDAQGRSDSNTEEKAELQSNLQVELLSEHDDHNGEVWSVSWNLTGTILSSAGDDGKVRLWKATYSNEFKCMSVITAQQ
B4: Nup85 (natural protein, S. cerevisiae, UniProt P46673 1-744, looked up)
chain: MTIDDSNRLLMDVDQFDFLDDGTAQLSNNKTDEEEQLYKRDPVSGAILVPMTVNDQPIEKNGDKMPLKFKLGPLSYQNMAFITAKDKYKLYPVRIPRLDTSKEFSAYVSGLFEIYRDLGDDRVFNVPTIGVVNSNFAKEHNATVNLAMEAILNELEVFIGRVKDQDGRVNRFYELEESLTVLNCLRTMYFILDGQDVEENRSEFIESLLNWINRSDGEPDEEYIEQVFSVKDSTAGKKVFETQYFWKLLNQLVLRGLLSQAIGCIERSDLLPYLSDTCAVSFDAVSDSIELLKQYPKDSSSTFREWKNLVLKLSQAFGSSATDISGELRDYIEDFLLVIGGNQRKILQYSRTWYESFCGFLLYYIPSLELSAEYLQMSLEANVVDITNDWEQPCVDIISGKIHSILPVMESLDSCTAAFTAMICEAKGLIENIFEGEKNSDDYSNEDNEMLEDLFSYRNGMASYMLNSFAFELCSLGDKELWPVAIGLIALSATGTRSAKKMVIAELLPHYPFVTNDDIEWMLSICVEWRLPEIAKEIYTTLGNQMLSAHNIIESIANFSRAGKYELVKSYSWLLFEASCMEGQKLDDPVLNAIVSKNSPAEDDVIIPQDILDCVVTNSMRQTLAPYAVLSQFYELRDREDWGQALRLLLLLIEFPYLPKHYLVLLVAKFLYPIFLLDDKKLMDEDSVATVIEVIETKWDDADEKSSNLYETIIEADKSLPSSMATLLKNLRKKLNFKLCQAFM

Legend:
Nup145C = Nup145C (S. cerevisiae, UniProt P49687); experiment: crystal structure
Sequence of Nup145C (P49687 680-1317): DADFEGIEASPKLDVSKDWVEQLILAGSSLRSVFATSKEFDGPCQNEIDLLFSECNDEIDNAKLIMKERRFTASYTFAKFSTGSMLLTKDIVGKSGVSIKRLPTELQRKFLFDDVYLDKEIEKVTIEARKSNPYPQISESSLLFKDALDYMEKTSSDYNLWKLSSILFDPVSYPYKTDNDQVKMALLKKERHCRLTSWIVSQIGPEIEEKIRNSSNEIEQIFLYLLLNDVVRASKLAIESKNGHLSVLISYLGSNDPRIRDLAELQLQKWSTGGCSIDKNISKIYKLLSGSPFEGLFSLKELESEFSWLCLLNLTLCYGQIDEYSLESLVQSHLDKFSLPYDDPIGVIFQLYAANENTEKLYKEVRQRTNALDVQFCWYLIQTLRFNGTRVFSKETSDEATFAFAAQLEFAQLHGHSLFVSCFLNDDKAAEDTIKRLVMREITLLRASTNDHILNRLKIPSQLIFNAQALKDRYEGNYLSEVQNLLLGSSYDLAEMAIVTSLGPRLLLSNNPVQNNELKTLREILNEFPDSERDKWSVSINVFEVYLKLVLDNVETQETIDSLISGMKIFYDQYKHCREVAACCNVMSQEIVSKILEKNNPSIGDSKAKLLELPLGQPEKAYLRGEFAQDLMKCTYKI

Nup85 [1] = biological target: Nup85 (S. cerevisiae, UniProt P46673); experiment: crystal structure
Nup120 [2] = biological target: T1, Nup120; experiment: SEC
Nup85 [3] = biological target: B4; experiment: crystal structure
Nup120 [4] = biological target: T1, Nup120; experiment: crystal structure

Binder: B1
binding result (Nup145C): binds
binding result (Nup85 [1]): binds

Binder: B2
binding result (Nup120 [2]): binds

Binder: B3
binding result (Nup85 [3]): binds

Binder: B4
binding result (Nup120 [4]): binds
